In the DeepSol protein solubility set:

assay: soluble on expression in E. coli; label from the status in PepcDB or PDB records

Sequence | soluble on expression in E. coli
MFNCLGTSNRDFVEGASGATWIDLVLEGGSCVTVMAPEKPTLDFKVMKMEATELATVRKYCYEATLDTLSTVARCPTTGEAHNTKRSDPTFVCKRDVVDRGWGNGCGLFGKGSIDTCAKFTCKNKATGKTILRENIKYEVAIFVHGSTDSTSHGNYFEQIGKNQAARFTISPQAPSFTANMGEYGTVTIDCEARSGINTEDYYVFTVKEKSWLVNRDWFHDLNLPWTSPATTDWRNRETLVEFEEPHATKQTVVALGSQEGALHTALAGAIPATVSSSTLTLQSGHLKCRAKLDKVKIKGTTYGMCDSAFTFSKNPTDTGHGTVIVELQYTGSNGPCRVPISVTANLMDLTPVGRLVTVNPFISTGGANNKVMIEVEPPFGDSYIVVGRGTTQINYHWHKEGSSIGKA | not soluble
MGSDKIHHHHHHMSERLRVLVVSHGHPAMSLGGAEIASHSLHKGLNTLPGVESIYLARVGHPVPRHGASALMSLRLAVDEVLFHADDYDHFFLSNGDTEAIRRDLLRFIGDLSPHVIHFHHLIGMGMEALYALREALPEAVIVVTFHEYLSLCHNHGQMVKRPSAQLCNSSSPISCHGCFPDIPVSRFLRREEFLRGMLGLADAFISPSMFLANRYVEWGIDAEKLSVIDNGIVMGEAAPVRDLPVPSARRNRFAYFGQMTPFKGIDVLVDAVSRVPEEIWGEDSCLMIFGGNLERQPAEFQERLKKLIDDAGRRVRFYGAYQNADMPRLMRSVDWVVLPSIWWENSPVVIQEALHHRRPIICSDIGGMAEKVQDGRDGLHFRAGSAQDLADRLSDVLVKPEAWDRLHATLRPPTGHAESARAHADLYRRLLKDRRSPLGAAQYEAAAQAVV | not soluble
MGHHHHHHSHMQTFQLDTERLCQAAKLYQHTKSDFGLNGMIQLSGSCNNMSLSVLGSIGGCAILRLELLEAARLHSSKDSSKSAIYSFRNASSLGREFTHGGELFGPKMESASLSFYGHHGVKYVEAQFVHDSSSKTVHTAAMQPITIPPSCAFDDREANGIVTLSTKTAAALVKWLKQHTKTCQSPVKVSISEILGVMVLSVGDASMTVDVTPVNVSSGKKTRGGNKASDSGTISADATVHVNGHCLIRSLIVCKVPGCTTPRVKFHACGILEVDGAPVKQGELTQVKLSVALLNVDSSTGRVLKEPVVTGASKDRGASKSEDADGSPPVPDHPKESLTSDSDSSVPGPRSTDLSSLTHTPSDRFSSDLRSGCGGQQFLKRPPPKKDREPTTKRPKLHFNHFP | soluble
MQKVRLIVSGRVQGVGFRYATHTLALDIGDIYGRVWNNNDGTVEILAQSKDSDKIATFIQEVRKGPSKWAKVTYVDVTMANFEDFQDFQIGK | not soluble
MKEKKLNLKKHLNTVVTLNSDYLNLLDLMQITNANFPIGTFSHSFGVETYIRKDIVFDGESLIKALLLYMNEQLLHGDLLAIYQIFKLLPKQKINAIWEIDQMINFQGLARETREGQRRIGQQMVKIYNELFNCELLVEYAERIKNKKSYGNPAVAFALLAMHLKIDLKTALYTHLYSTVAALTQNCVRAIPLGQVKGQKIIYQLKHVYFDDIVNKVFTLDFKTDFCKNIPGLEIAQMEHEDTPVRLFMSLEHHHHHH | not soluble
MSLRYLSESKVAIKHSNDLNGSNLNVALLMGAGNPSSAEDALYLKEYINSPDMLAVLDKQLDFRQAFGHSGWDFFYHLSDSATREQFLNYYRNRISVSYDDKTGLLTIGTQGFSPEFAQKFNQAVLKESERFINEEGHHHHHH | soluble
MGSSHHHHHHSSGLVPRGSHMASERPVSTLSSQITGELRELNPQATGSSTSLVGQSLFQHSSLDTSQFGLNASIAEVLNASFKDGMLQNSQLIGEIALNYLPNSVMNSPLPIGINLRINNGAKFEKVILNQAFIERVAPEEFKVNPSFIDSRTLGAIKYSIKEPIAPIVIHPVWRFESHQASVVLTVKMSPSLPDEISQIVIEDLVVFVNIDGANATSALSKPQGSFSKEKKRITWRFKEPVVLTRNGEGQRLIARFITDGLAHESAKGVITKFTISETDNVALPHSGAGSGITLTCQELDENNPFGGEWLDVNTKRTLTTGNYHGLA | soluble
MGSDKIHHHHHHMSQRIGVIDMGTNTFHLLITDIVNDRPHTLVNEKSAVGLGKGGITKGFITEEAMDRALDTLKKFRVILDEHAVVHVIATGTSAVRSGSNKQVLIDRIKKEVNIDVEVIDGAREAELIFRGVQQAVPMEDHISLAMDIGGGSVEFIIGNKNEILWKQSFEIGGQRLIDRFHVHDPMREDDRVMMHNYFDEVLVPLEKAINTWRPTQLIGCSGTFDTLAEMNIQHHREKIALEKQTSYLLSLPDFNRLRKQLVASTRRERLAIAGMIELRADMVVVAICLIEHVLKLVSTNAITVSTYSLKEGVLYTMLDGVKVGS | not soluble
MKATPAQVPMKERIKEVATDMLIAHGSSGFRFQQIAQALDCTRGNIHYHYRHKHELVEDVTIEYCQRTIGHFDQIWLSDSTLSQKIQLSMQFNEMRYLKRNPQGDTSHPWSLIARMRLESALITPAAREALARYSHELQRSVVAGVRRAVEKGELRPDTPVEMVALPIIEMANSADPITRDAGRFDRLRQMYQAVDRLIHDAYGMAGHRPAP | not soluble
MKSHQFSTALCQNTTESNGQPLRFPSPAKLNLFLYINGKFPNGYHELQTLFQFLDFGDWLDISIREQDNQIVLTPEIPNLKTENNLIYRAAKLLQEKANIQLGANIHLDKILPMGGGVGGGSSNAATALVSLNYLWQANLSIDELAKLGLTLGADVPIFVHGHAAFAEGVGEKITYCEPAEKWFVILKPDDSISTAVIFQDPNLPRNTPKKSLAQLLSEPYKNDCEKVVINHYSNVEKALNWLLQYAPARLTGTGACVFAEFDHEAEAQAVFRQKPEAFFGFVAKGLNVSPLHAMLKQLSSTHTHRQSKPEVLLEHHHHHH | soluble
DKSRIAHMIDEWDGKEIIYPDDLVFTTMGEDTVKWFLKDSRYTIVTYADSIGCMGCKLKLPVWKDFISYLDSVSDHTVKVIFILHPRDKKEMVHLLEYNDFSYPVCLDIKGSFDKINKIPSNLAFQTFLLDNRNKVIAIGNPIHNPNVRTLYLNLILSDSICKS | not soluble
MGSDKIHHHHHHMPGPYNEMDVAISYIHNHLYEPLSLSHIASYVGYSSYHFSRLFKEKTGLSPLYYVSSLRLQKAKELLLNTNLTVRDIGLEIGQQSLGTFTTRFTKCVGMSPSHFRESMNQVNHSLHSLQMLSDWRTSLQSIHPFSTVTGTIDSEAPLEGFILIGLFSKPIPEGLPLYGNLLSSTGAFSFTGVTPGIYYLMATSISWSMQAKDILLPYTTLRGRIKEPIIVTSSPSILEYSLTLHTPRLDDPPILISLPLLMKNFLKARIAT | not soluble
MSLNQQKKQAPVELKVGQTFPLTIKRLGINGEGVGYFKKKVVFVPGALPGEEVVVQATKVQPKFSEGRIKKIRKASEHRVAPPCPVYEQCGGCQLQHLAYSQQLREKRDIVIQSLERHTKFKVENMEIKETIGMDNPWNYRNKSQFQIGRSQSGSIIAGLYGLDSHDIVPIKDCIVQHPATNKTTGIVRRILEDFNVSVYNERKRKGDVRTIVTRVGFETGEVQVVLVTAKETLPHKEEIVKAIQKRLPEVKSIIQNVNGAKTSVIFGEKTKQLAGKTVIQEVLGDVSFELSARAFFQLNPEQTVKLYDEVKKAAQLTGKEKVVDAYCGVGTIGMWVADGAKEVRGMDVIKESIDDAKKNAKKHGMANATYVTGTAEHWLPKWTKEGFRPDVVIVDPPRTGCDSTFLDTIKKVKPKRFVYVSCNPSTLAKDLQTLSKDYRVDYIQPVDMFPQTAHVEAVARLVLKSSNEGHHHHHH | not soluble
MYDAALGRWHAVDPMSEKYYSWSPYTYCKNNPVLRIDLDGKDDYVISRSGRLFNETPIDKRGKGSTDNLYLSSDRSISVTVNQGLLGEMHSMQAKEQKENRVKKSYGSTQDLETAATVFKFAADHTTVEWKLDVYDDNGTRTAVVATDRDPYGVDNGVYAQNKLSVKGEKVIDIHSHLPGGTKGGAGNDFNLAKPQRKNAVYMKDNRVSTDKKDMIYEYTKNASRVNSIRVYDATDLLQYIKRK | not soluble
MSSSREENVYLAKLAEQAERYEEMVEFMEKVAKTVDTDELTVEERNLLSVAYKNVIGARRASWRIISSIEQKEESRGNDDHVSIIKDYRGKIETELSKICDGILNLLDSHLVPTASLAESKVFYLKMKGDYHRYLAEFKTGAERKEAAESTLVAYKSAQDIALADLAPTHPIRLGLALNFSVFYYEILNSPDRACSLAKQAFDEAISELDTLGEESYKDSTLIMQLLRDNLTLWNSDINDEAGGDEIKEASKHEPEEGKPAETGQ | soluble
MQLVREKEFVNQYHYDARNLEWEKENGTPETNFEVTFQLIDKDEQQKETVIVSVLQFVIVKEEFVISGVISQMVRILDRLVDKPSEFTQEEVESLAAPLLDMVKRLTYEVTEIALDRPGIHLEFKN | not soluble
MVARSPKGCQEKPVASGKSGIMPSSGRGFRALAPRTLAPFQGAFGGGPSSPGGPHEGGPTPWPTRWRSGSSASGARAGVTPRTLRRIFLEEVERELGPEKARLLAKQTLPFEEIFVVEGRKQRPFSKGLLTRSLEDAGFSLREAHELAKAVERRLRLEGVRRIPAKRLEKVVAEEARRLYGPEAGERYRARLLYAGELFVEEAPGAPRVPFSKGILAQSLMAIGLSPDRAFRLAREMEVALHREGVQVIRRDELRRRVHQALLREAGEEMARRYLILRSLRKQPRPVHILIGGVTGVGKSVLASALAYRLGITHIVPSDAVREVFRVSLSKDLLPTLHLSTFEAWRALSPGLGLEGESYEVQVMRGFLDQVAKVAVGLKAIQERSALEGTSIVLEGVHVVPRFLQHPYQDRVFTIPMLVAVQDENLHRDRFLLRDRETGHARPKERYLQHFEEIRLIQNHLLRWAREEGIPVIPGEDLDEGIEKALEVLVAYLEAQGQRLEEAHA | soluble
MGSDKIHHHHHHVDGTSKQVIKRDKMITQAISQLTPQNKLLVEEINKNVQDTILERLNMNIAGRWNDSSLSLTLMKSTIKFVPVIDSPSRLYLVNDSEKVFRIPEKFACFYGQNDNGETIYFYAIYHAENFMKDTNPKSYYQGYVEVFGKEAADKMVESSIKRTEAERWEIMSFTPQKNETKKFEYAREHSDDGTFFILTRENTYPHICFFKDKKPYYCWGANQDELSMEPLENYLKP | not soluble
HHHHHHMTTINPTNYTLLKKQAASLIEDEHHMIAILSNMSALLNDNLDQINWVGFYLLEQNELILGPFQGHPACVHIPIGKGVCGTAVSERRTQVVADVHQFKGHIACDANSKSEIVVPIFKDDKIIGVLDIDAPITDRFDDNDKEHLEAIVKIIEKQLA | soluble
MNIQPTIQSGITSQNNQHHQTEQIPSTQIPQSELPLGCQAGFVVNIPDDIQQHAPECGETTALLSLIKDKGLLSGLDEYIAPHLEEGSIGKKTLDMFGLFNVTQMALEIPSSVSGISGKYGVQLNIVKPDIHPTSGNYFLQIFPLHDEIGFNFKDLPGPLKNALSNSNISTTAVSTIASTGTSATTSTVTTEPKDPIPWFGLTAQVVRNHGVELPIVKTENGWKLVGETPLTPDGPKANYTEEWVIRPGEADFKYGASPLQATLGLEFGAHFKWDLDNPNTKYAVLTNAAANALGALGGFAVSRFASTDPMLSPHIGAMVGQAAGHAIQYNTPGLKPDTILWWAGATLGAADLNKAEFEVARFTDYPRIWWHAREGAIFPNKADIEHATGADIRAMEEGIPVGQRHPNPEDVVIDIESNGLPHHNPSNHVDIFDIIQETRV | not soluble
MDCNGSGGSSDDDKPLHHDGGVRMKFFRSVGEVFGYSPFRSLAQHARMCGRAVGLLQQQFEALRRGNYEEVEELREEIDELEHHADQIKEEIRGNVTKSLMLPVDRHDLLEFLKVQDDILNNCEHVGHMVTFRKVSAPEDVWDEFLVLLSKLMEIVNNYEEMVERIMQLVETSFSKKEVNRALEYVPIIEQLEHECDLIQIGLHTKLFNLENSNPLDIQLMVTWVVHLGYVANAAARASDRFRIMILGR | soluble
MTKKVVVHQIVGHRFLGVNEQGDKVMIDGDQPSTGPRPMELLLMALGACTAYDVVDIMRKKKQPLARYRVEVEGERAETHPRRYTRITVTHIASGPGVTLEALERAVHLSHTKYCSVSATLNAEITTRVVLEPWEGEEGEG | soluble
